# Test results from paper PMC6066285 (Cell reports, 2018).
# Target: the molecule itself
# Test: SEC
protein,measurement,value
"recombinant FOG-3 (sizing column, Figure S2A) (domain or fragment) MYTEVRELVNFVCRYLFGHIPRRPVGIFGAELGNYLVSHFSSTWDVHHPKNGEMKRMINTTTSLCFASSAEEAGVPPSDVLRLLPTNMIIFANPGHVFVRLSENGIETPIWIGDVNCDENYQSVPEYVVRTAAIRAE",stoichiometry N,2
